Laboratory results reported in PMC7469494 (Autophagy, 2019).
Residue numbers refer to the chain shown, from its start.

What was measured:
[1] = molecular target: T1, tVac8 (Vac8 construct comprising residues 10–515) (S. cerevisiae, UniProt P39968 10-515); test: AUC
T1 sequence (looked up): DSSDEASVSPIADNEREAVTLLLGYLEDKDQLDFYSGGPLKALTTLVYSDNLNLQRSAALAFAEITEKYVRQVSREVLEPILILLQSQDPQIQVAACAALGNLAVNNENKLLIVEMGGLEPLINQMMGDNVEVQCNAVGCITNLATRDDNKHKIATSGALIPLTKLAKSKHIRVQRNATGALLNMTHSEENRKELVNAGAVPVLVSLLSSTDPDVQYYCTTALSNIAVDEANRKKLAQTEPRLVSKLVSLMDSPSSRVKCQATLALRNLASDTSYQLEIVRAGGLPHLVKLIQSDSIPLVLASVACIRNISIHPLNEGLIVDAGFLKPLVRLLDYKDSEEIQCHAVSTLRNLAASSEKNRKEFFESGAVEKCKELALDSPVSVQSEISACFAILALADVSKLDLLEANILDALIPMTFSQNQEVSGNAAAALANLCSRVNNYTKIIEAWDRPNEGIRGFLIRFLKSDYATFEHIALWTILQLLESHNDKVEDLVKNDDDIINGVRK

Vac8[40–515] = molecular target: T2, Vac8[40–515] (S. cerevisiae, UniProt P39968 40-515); test: SEC
T2 sequence (looked up): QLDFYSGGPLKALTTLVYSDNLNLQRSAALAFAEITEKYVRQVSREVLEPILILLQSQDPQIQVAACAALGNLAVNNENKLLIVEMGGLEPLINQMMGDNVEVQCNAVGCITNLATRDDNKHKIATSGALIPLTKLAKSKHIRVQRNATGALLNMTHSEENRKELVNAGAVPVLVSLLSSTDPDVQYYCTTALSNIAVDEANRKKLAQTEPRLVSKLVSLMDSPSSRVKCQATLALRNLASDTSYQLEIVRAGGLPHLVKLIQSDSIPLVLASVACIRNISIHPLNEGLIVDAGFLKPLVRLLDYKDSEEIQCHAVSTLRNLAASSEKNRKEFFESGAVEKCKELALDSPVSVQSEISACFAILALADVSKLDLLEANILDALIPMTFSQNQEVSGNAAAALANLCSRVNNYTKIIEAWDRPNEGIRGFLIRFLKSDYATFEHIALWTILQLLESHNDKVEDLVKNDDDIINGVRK

Vac8[40–515]^A51R = molecular target: T3, Vac8[40–515]^A51R (S. cerevisiae, UniProt P39968 40-515, A51R); test: SEC
T3 sequence (looked up): T2 sequence (looked up) with A12R

Vac8[40–515]^N62R = molecular target: T4, Vac8[40–515]^N62R (S. cerevisiae, UniProt P39968 40-515, N62R); test: SEC
T4 sequence (looked up): T2 sequence (looked up) with N23R

Vac8[40–515]^N60R,N62R = molecular target: T5, Vac8[40–515]^N60R,N62R (S. cerevisiae, UniProt P39968 40-515, N60R | N62R); test: SEC
T5 sequence (looked up): T2 sequence (looked up) with N21R, N23R

binding result [1]: binds
binding result (Vac8[40–515]): binds
binding result (Vac8[40–515]^A51R): binds
binding result (Vac8[40–515]^N62R): binds
binding result (Vac8[40–515]^N60R,N62R): binds
B1: tAtg13 (Atg13 construct comprising residues 567–695) (domain or fragment, S. cerevisiae, UniProt Q06628 567-695, looked up)
chain: GGNSSTSALNSRRNSLDKSSNKQGMSGLPPIFGGESTSYHHDNKIQKYNQLGVEEDDDDENDRLLNQMGNSATKFKSSISPRSIDSISSSFIKSRIPIRQPYHYSQPTTAPFQAQAKFHKPANKLIDNG
